Measurements: publication PMC11662938, “Single-molecule visualization of sequence-specific RNA binding by a designer PPR protein”

Columns and labels:
dPPR10-C2 [1] = target: T1, dPPR10-C2 (synthetic construct (designed consensus …, Q96C;Q376C)); assay: competition; 100-fold excess over RNAcognate; smFRET; SPR: 30 mM Tris pH 7.6, 40 mM KCl, 5 mM MgCl2, 0.5 mM DTT, 0.25 mM EDTA, 0.01% P20, 20 C; ensemble FRET and MST: 100 mM Tris-HCl pH 8.0, 100 mM KCl; smFRET buffer not in material; settings: protein: recombinant; tags: N-terminal Avi-tag, biotinylated; Cy3/AF647 maleimide on Cys for FRET
T1 chain: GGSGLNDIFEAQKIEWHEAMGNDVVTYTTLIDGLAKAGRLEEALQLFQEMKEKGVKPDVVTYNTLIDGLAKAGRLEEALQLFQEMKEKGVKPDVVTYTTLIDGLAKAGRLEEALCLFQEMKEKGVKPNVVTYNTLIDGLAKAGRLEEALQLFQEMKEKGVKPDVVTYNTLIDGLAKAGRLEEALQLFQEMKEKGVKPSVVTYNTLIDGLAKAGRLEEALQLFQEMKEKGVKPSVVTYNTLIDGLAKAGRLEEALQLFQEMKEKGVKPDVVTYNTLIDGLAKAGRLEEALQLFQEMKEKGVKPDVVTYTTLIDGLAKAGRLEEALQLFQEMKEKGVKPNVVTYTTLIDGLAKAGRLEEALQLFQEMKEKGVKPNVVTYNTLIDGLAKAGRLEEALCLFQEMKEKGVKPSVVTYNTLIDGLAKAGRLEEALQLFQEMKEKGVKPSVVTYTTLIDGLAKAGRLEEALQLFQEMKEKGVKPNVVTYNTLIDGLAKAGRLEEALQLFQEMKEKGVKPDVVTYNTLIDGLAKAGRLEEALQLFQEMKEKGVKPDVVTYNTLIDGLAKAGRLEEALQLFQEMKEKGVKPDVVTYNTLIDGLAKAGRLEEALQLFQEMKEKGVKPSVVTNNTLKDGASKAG

dPPR10-C2 [2] = target: T1, dPPR10-C2; assay: smFRET; 1 uM RNA; mean binding time 43.4 s; SPR: 30 mM Tris pH 7.6, 40 mM KCl, 5 mM MgCl2, 0.5 mM DTT, 0.25 mM EDTA, 0.01% P20, 20 C; ensemble FRET and MST: 100 mM Tris-HCl pH 8.0, 100 mM KCl; smFRET buffer not in material; settings: protein: recombinant; tags: N-terminal Avi-tag, biotinylated; Cy3/AF647 maleimide on Cys for FRET; 3' extension, predicted secondary structure
dPPR10-C2 [3] = target: T1, dPPR10-C2; assay: smFRET; 1 uM RNA; mean binding time 30.0 s; SPR: 30 mM Tris pH 7.6, 40 mM KCl, 5 mM MgCl2, 0.5 mM DTT, 0.25 mM EDTA, 0.01% P20, 20 C; ensemble FRET and MST: 100 mM Tris-HCl pH 8.0, 100 mM KCl; smFRET buffer not in material; settings: protein: recombinant; tags: N-terminal Avi-tag, biotinylated; Cy3/AF647 maleimide on Cys for FRET; no predicted secondary structure
dPPR10 [4] = target: T2, dPPR10 (synthetic construct (designed consensus …)); assay: MST; SPR: 30 mM Tris pH 7.6, 40 mM KCl, 5 mM MgCl2, 0.5 mM DTT, 0.25 mM EDTA, 0.01% P20, 20 C; ensemble FRET and MST: 100 mM Tris-HCl pH 8.0, 100 mM KCl; smFRET buffer not in material; settings: protein: recombinant; tags: Trx-His6-TEV (pETM20) cleaved; GAM remnant; label: 5' 6-FAM
T2 chain: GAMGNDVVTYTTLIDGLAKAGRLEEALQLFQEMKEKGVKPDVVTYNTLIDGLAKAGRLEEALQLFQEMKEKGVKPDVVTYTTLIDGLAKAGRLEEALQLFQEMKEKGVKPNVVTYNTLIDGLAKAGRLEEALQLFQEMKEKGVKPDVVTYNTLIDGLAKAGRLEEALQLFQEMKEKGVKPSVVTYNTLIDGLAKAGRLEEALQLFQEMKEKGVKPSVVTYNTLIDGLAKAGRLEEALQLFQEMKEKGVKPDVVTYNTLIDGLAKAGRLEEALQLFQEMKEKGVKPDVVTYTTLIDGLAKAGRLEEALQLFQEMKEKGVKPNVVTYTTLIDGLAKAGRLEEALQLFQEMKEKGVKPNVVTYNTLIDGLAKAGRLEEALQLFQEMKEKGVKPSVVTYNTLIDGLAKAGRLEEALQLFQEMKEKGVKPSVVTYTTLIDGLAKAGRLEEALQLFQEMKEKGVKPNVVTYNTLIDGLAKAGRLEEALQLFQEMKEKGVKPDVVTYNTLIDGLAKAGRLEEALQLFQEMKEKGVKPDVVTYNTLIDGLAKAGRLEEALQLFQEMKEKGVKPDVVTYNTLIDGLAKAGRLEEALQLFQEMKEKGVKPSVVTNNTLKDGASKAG

dPPR10-C2 [5] = target: T1, dPPR10-C2; assay: smFRET; 1 uM RNA; SPR: 30 mM Tris pH 7.6, 40 mM KCl, 5 mM MgCl2, 0.5 mM DTT, 0.25 mM EDTA, 0.01% P20, 20 C; ensemble FRET and MST: 100 mM Tris-HCl pH 8.0, 100 mM KCl; smFRET buffer not in material; settings: protein: recombinant; tags: N-terminal Avi-tag, biotinylated; Cy3/AF647 maleimide on Cys for FRET
dPPR10-C2 [6] = target: T1, dPPR10-C2; assay: smFRET; 1 uM RNA; mean binding time 41.3 s vs 10.6 s cognate; SPR: 30 mM Tris pH 7.6, 40 mM KCl, 5 mM MgCl2, 0.5 mM DTT, 0.25 mM EDTA, 0.01% P20, 20 C; ensemble FRET and MST: 100 mM Tris-HCl pH 8.0, 100 mM KCl; smFRET buffer not in material; settings: protein: recombinant; tags: N-terminal Avi-tag, biotinylated; Cy3/AF647 maleimide on Cys for FRET; 5' extension, predicted secondary structure
dPPR10 [7] = target: T2, dPPR10; assay: MST; Results value; Fig S4D legend gives 9.7 nM; SPR: 30 mM Tris pH 7.6, 40 mM KCl, 5 mM MgCl2, 0.5 mM DTT, 0.25 mM EDTA, 0.01% P20, 20 C; ensemble FRET and MST: 100 mM Tris-HCl pH 8.0, 100 mM KCl; smFRET buffer not in material; settings: protein: recombinant; tags: Trx-His6-TEV (pETM20) cleaved; GAM remnant; label: 5' 6-FAM (FITC in Results)
dPPR10 [8] = target: T2, dPPR10; assay: MST; Fig S4D legend value, conflicts with 4 nM in text; legend says labelled dPPR10; SPR: 30 mM Tris pH 7.6, 40 mM KCl, 5 mM MgCl2, 0.5 mM DTT, 0.25 mM EDTA, 0.01% P20, 20 C; ensemble FRET and MST: 100 mM Tris-HCl pH 8.0, 100 mM KCl; smFRET buffer not in material; settings: protein: recombinant; tags: Trx-His6-TEV (pETM20) cleaved; GAM remnant; label: 5' 6-FAM (FITC in Results)
dPPR10-C2 [9] = target: T1, dPPR10-C2; assay: smFRET; 1 uM RNA; rare transitions; SPR: 30 mM Tris pH 7.6, 40 mM KCl, 5 mM MgCl2, 0.5 mM DTT, 0.25 mM EDTA, 0.01% P20, 20 C; ensemble FRET and MST: 100 mM Tris-HCl pH 8.0, 100 mM KCl; smFRET buffer not in material; settings: protein: recombinant; tags: N-terminal Avi-tag, biotinylated; Cy3/AF647 maleimide on Cys for FRET
dPPR10-C2 [10] = target: T1, dPPR10-C2; assay: ensemble FRET; SPR: 30 mM Tris pH 7.6, 40 mM KCl, 5 mM MgCl2, 0.5 mM DTT, 0.25 mM EDTA, 0.01% P20, 20 C; ensemble FRET and MST: 100 mM Tris-HCl pH 8.0, 100 mM KCl; smFRET buffer not in material; settings: protein: recombinant; tags: N-terminal Avi-tag, biotinylated; Cy3/AF647 maleimide on Cys for FRET

## UCACAGGAACCGGCAAAGU (ssRNA) [RNAanti-cognate]
dPPR10-C2 [1]
  binding result: no binding

## UGUAUCCUUAACCAUUUCUCACAGGAACCGGCAAAG (ssRNA) [RNA3'-OH]
dPPR10-C2 [2]
  binding result: binds

B1: RNAdual-OH (delta2) (ssRNA)
RNA: CAUUCCAACCCCCAAAGUGUAUCCUUAACCAUUUCUCUCACCAACCCCCAAAG
dPPR10-C2 [3]
  binding result: binds

## UCACAGGAACCGGCAAAGU (ssRNA) [RNAanti-cognate 5'-FAM]
dPPR10 [4]
  binding result: no binding

## UGUAUCCUUAAC (ssRNA) [RNA1-12]
dPPR10-C2 [5]
  binding result: binds

## CACAGGAACCGGCAAAGUGUAUCCUUAACCAUUUCU (ssRNA) [RNA5'-OH]
dPPR10-C2 [6]
  binding result: binds

## UGUAUCCUUAACCAUUUCU (ssRNA) [RNAcognate 5'-FAM]
dPPR10 [7]
  Kd: 4 nM
dPPR10 [8]
  Kd: 9.7 ± 1.8 nM

## CCAUUUCU (ssRNA) [RNA12-19]
dPPR10-C2 [5]
  binding result: no binding

## UGUAUCCUAUACCAUUUCU (ssRNA) [RNA U9A,A10U]
dPPR10-C2 [9]
  binding result: no binding

## UGUAUCCUUAACCAUUUCU (ssRNA) [RNAcognate]
dPPR10-C2 [10]
  Kd: 1.2 ± 0.2 nM

## UGUAUCCUUA (ssRNA) [RNA1-10]
dPPR10-C2 [5]
  binding result: no binding
